T1: Cyno DLL3-ECD (extracellular domain of cynomolgus macaque DLL3, residues 27 to 466, Avi-tag, 3C site, Fc knob … (cynomolgus macaque, UniProt A0A2K5WSR1 27-464, biotinylated at the Avi-tag (Example 11)))
T1 construct: range 27-466; also called cyno ECD; cynomolgus monkey DLL3; not shown: Avi-tag, 3C protease recognition site and Fc knob into hole
T1 sequence: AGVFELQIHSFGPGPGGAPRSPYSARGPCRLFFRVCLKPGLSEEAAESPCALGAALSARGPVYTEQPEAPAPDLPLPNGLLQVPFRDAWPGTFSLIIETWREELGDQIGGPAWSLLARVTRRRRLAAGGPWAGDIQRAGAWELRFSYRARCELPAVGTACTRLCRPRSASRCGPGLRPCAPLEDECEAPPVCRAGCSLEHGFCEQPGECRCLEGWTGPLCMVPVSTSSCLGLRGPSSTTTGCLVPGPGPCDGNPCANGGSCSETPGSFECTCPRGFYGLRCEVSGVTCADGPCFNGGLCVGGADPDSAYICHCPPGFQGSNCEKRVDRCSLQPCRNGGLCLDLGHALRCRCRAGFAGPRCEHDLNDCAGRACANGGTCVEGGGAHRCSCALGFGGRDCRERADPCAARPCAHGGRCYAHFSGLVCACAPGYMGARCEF

T2: Human DLL3-ECD (recombinant extracellular domain of human DLL3, Examples 11, 17 and 19) (human, UniProt Q9NYJ7 27-466, biotinylated at the Avi-tag where immobilised (Examples 11 and 19))
T2 construct: also called hDLL3-ECD; human ECD; not shown: Avi-tag and Fc knob into hole (order depends on the format)
T2 sequence: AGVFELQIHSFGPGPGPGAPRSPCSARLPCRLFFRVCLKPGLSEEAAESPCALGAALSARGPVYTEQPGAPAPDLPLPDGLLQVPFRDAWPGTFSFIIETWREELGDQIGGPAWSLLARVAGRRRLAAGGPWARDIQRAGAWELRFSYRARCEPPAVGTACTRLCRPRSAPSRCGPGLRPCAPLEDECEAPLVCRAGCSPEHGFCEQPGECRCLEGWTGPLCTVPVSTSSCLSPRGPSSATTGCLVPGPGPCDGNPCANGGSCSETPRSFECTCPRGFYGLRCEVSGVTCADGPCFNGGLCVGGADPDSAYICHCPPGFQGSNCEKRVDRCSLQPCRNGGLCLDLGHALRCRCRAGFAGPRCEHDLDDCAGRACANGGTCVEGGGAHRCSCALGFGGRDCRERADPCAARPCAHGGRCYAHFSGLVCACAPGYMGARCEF

T3: mouse DLL3-ECD (recombinant extracellular domain of mouse DLL3) (mouse, UniProt O88516 33-490)
T3 construct: extracellular domain
T3 sequence (looked up): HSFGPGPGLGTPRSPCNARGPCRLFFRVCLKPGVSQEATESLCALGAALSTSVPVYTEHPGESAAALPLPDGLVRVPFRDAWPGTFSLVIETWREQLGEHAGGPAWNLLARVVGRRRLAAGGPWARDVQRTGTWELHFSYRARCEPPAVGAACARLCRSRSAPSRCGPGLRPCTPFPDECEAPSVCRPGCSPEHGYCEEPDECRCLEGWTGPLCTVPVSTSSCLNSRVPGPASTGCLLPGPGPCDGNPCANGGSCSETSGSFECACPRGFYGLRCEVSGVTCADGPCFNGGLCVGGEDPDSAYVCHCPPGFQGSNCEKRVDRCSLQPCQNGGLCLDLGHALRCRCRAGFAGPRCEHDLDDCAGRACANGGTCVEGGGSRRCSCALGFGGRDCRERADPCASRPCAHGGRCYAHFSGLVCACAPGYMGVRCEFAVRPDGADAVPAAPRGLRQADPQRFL

T4: Human DLL3-ECD (Homo sapiens, UniProt Q9NYJ7)
T4 construct: the extracellular domain of DLL3 (DLL3-ECD) from human, cynomolgus monkey, mouse and pig
T4 sequence (Q9NYJ7 27-492 limits assumed): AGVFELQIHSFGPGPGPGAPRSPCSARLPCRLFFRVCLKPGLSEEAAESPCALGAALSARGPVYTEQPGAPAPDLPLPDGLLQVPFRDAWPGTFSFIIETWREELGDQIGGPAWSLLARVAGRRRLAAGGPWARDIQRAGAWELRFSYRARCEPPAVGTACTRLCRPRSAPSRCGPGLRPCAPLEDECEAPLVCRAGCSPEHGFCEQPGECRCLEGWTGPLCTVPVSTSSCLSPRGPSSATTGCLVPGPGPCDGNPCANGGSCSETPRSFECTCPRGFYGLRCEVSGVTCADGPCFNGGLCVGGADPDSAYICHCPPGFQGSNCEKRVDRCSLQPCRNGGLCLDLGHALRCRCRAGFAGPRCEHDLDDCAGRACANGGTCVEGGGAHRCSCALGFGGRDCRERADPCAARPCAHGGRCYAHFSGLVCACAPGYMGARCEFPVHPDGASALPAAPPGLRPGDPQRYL

T5: mouse DLL3-ECD (Mus musculus, UniProt O88516)
T5 construct: the extracellular domain of DLL3 (DLL3-ECD) from human, cynomolgus monkey, mouse and pig
T5 sequence (O88516 33-490 limits assumed): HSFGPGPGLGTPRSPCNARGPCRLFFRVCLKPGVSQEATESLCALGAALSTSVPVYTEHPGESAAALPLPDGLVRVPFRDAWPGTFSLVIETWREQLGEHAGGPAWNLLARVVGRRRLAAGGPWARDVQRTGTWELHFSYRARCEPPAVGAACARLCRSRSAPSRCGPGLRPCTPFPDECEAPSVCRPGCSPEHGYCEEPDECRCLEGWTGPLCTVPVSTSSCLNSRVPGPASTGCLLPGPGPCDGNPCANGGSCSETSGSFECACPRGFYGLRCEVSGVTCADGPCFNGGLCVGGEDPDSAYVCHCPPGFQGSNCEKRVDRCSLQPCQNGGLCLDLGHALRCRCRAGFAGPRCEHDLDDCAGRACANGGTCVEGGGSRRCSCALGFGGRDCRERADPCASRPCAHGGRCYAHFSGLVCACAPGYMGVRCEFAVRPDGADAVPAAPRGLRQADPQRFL


Experiments:
[1] = target: pig DLL3-ECD (recombinant extracellular domain of pig DLL3) (pig); experiment: SPR (ProteOn), biotinylated DARPin on chip, pig DLL3-ECD as analyte, 1:1 Langmuir fit
[2] = target: T1, Cyno DLL3-ECD (extracellular domain of …); experiment: SPR (ProteOn), biotinylated DARPin on chip, cyno DLL3-ECD as analyte, 1:1 Langmuir fit
Description: (§1) SPR multi-trace analyses were performed similarly as described in Examples 1 and 11. Here, the binding kinetics of immobilized DARPin proteins to the extracellular domain of DLL3 (DLL3-ECD) from human, cynomolgus monkey, mouse and pig were determined.
(§2) Streptavidin SAHC200M (Xantec) SPR chip was conditioned according to the manufacturer's protocol.

[3] = target: T2, Human DLL3-ECD (recombinant …); experiment: SPR (ProteOn), biotinylated DARPin on chip, human DLL3-ECD as analyte, 1:1 Langmuir fit
Description: as §1, §2

[4] = target: T3, mouse DLL3-ECD (recombinant …); experiment: SPR (ProteOn), biotinylated DARPin on chip, mouse DLL3-ECD as analyte, 1:1 Langmuir fit
Description: as §1, §2

Human DLL3-ECD = target: T4, Human DLL3-ECD; experiment: SPR, immobilized DARPin, binding of human DLL3-ECD (Example 17); settings: immobilized biotinylated DARPin, DLL3-ECD as analyte, 1:1 Langmuir, Table 19
Description: (§3) Kinetic binding parameters and binding affinities of two domain (2D) ankyrin repeat protein MAM279 and single domain (1 D) ankyrin repeat protein MAM093 to DLL3 from different species were determined. The DLL3-specific ankyrin repeat domain of MAM093 is identical to the DLL3-specific ankyrin repeat domain comprised in MAM279.
(§4) SPR multi-trace analyses were performed similarly as described in Examples 1 and 11. Here, the binding kinetics of immobilized DARPin proteins to the extracellular domain of DLL3 (DLL3-ECD) from human, cynomolgus monkey, mouse and pig were determined. Various concentrations of recombinant DLL3-ECD starting from 500 nM were applied to immobilized biotinylated 2D DARPin (MAM279; SEQ ID NO: 11) or 1 D DARPin (MAM093; SEQ ID NO: 1) (both with a Glycine-Serine (GS) at the N-terminal end) for on-rate and off-rate measurements.
(§5) Streptavidin SAHC200M (Xantec) SPR chip was conditioned according to the manufacturer's protocol. Biotinylated DARPins were immobilized to a coating density of 27 resonance units (RU) for 1D DARPin and 25 RU for 2D DARPin. All analytes (3-fold dilution ranging from 500-6.17 nM) were injected in succession for 240 s and dissociation was recorded for 10800 s using a constant flow of 100 μl/min.

Cyno DLL3-ECD = experiment: SPR, immobilized DARPin, binding of cyno DLL3-ECD (Example 17); design: species or system cynomolgus monkey; settings: immobilized biotinylated DARPin, DLL3-ECD as analyte, 1:1 Langmuir, Table 19
Description: as §3, §4, §5

mouse DLL3-ECD = target: T5, mouse DLL3-ECD; experiment: SPR, immobilized DARPin, binding of mouse DLL3-ECD (Example 17); settings: immobilized biotinylated DARPin, DLL3-ECD as analyte, 1:1 Langmuir, Table 20
Description: as §3, §4, §5

pig DLL3-ECD = experiment: SPR, immobilized DARPin, binding of pig DLL3-ECD (Example 17); settings: immobilized biotinylated DARPin, DLL3-ECD as analyte, 1:1 Langmuir, Table 20
Description: as §3, §4, §5

Kd [1] | koff [1] | kon [1] | Kd [2] | koff [2] | kon [2] | Kd [3] | koff [3] | kon [3] | Kd [4] | koff [4] | kon [4] | other results | Molecule
17.3 nM | 0.000319 s⁻¹ | 18400 M⁻¹ s⁻¹ | 8.88 nM | 0.000939 s⁻¹ | 106000 M⁻¹ s⁻¹ | 0.127 nM | 1.31e-05 s⁻¹ | 102000 M⁻¹ s⁻¹ | 83.9 nM | 0.00282 s⁻¹ | 33700 M⁻¹ s⁻¹ |  | Biotinylated 2D DARPin MAM279 (SEQ ID NO: 11) with a Glycine-Serine (GS) at the N-terminal end (designed binder, biotinylated (site and any tag used not stated), also called Biotinylated DARPin MAM279) GSDLGKKLLEAARAGQDDEVRELLKAGADVNAKDYFSHTPLHLAARNGHLKIVEVLLKAGADVNAKDFAGKTPLHLAADAGHLEIVEVLLKAGADVNAQDIFGKTPADIAADAGHEDIAEVLQKAAGSPTPTPTTPTPTPTTPTPTPTGSDLGKKLLAAAAQGQDDEVRELLKAGANVNAKDLFGYTPLHLAAWRGHLEIVEVLLKAGADVNAKDAAGETPLHLAAWFGHLEIVEVLLKAGADVNAQDLQGKTPADLAAKEGHEDIAEVLQKAA
 |  |  |  |  |  |  |  |  |  |  |  | Kd (Human DLL3-ECD): 0.13 nM; Koff Human DLL3-ECD (Human DLL3-ECD): 1.18e-05 s⁻¹; Kon Human DLL3-ECD (Human DLL3-ECD): 90700 M⁻¹ s⁻¹; Kd (Cyno DLL3-ECD): 8.72 nM; Koff Cyno DLL3-ECD (Cyno DLL3-ECD): 0.000825 s⁻¹; Kon Cyno DLL3-ECD (Cyno DLL3-ECD): 94700 M⁻¹ s⁻¹; Kd (mouse DLL3-ECD): 149 nM; Koff mouse DLL3-ECD (mouse DLL3-ECD): 0.004 s⁻¹; Kon mouse DLL3-ECD (mouse DLL3-ECD): 26700 M⁻¹ s⁻¹; Kd (pig DLL3-ECD): 14.3 nM; Koff pig DLL3-ECD (pig DLL3-ECD): 0.00033 s⁻¹; Kon pig DLL3-ECD (pig DLL3-ECD): 23100 M⁻¹ s⁻¹ | MAM093: Ankyrin repeat domain specific for DLL3 (SEQ ID NO: 1); single domain (1D) DARPin (protein, Ankyrin repeat domain specific for DLL3 (MAM093), single domain (1D) DARPin) DLGKKLLAAAAQGQDDEVRELLKAGANVNAKDLFGYTPLHLAAWRGHLEIVEVLLKAGADVNAKDAAGETPLHLAAWFGHLEIVEVLLKAGADVNAQDLQGKTPADLAAKEGHEDIAEVLQKAA
14.3 nM | 0.00033 s⁻¹ | 23100 M⁻¹ s⁻¹ | 8.72 nM | 0.000825 s⁻¹ | 94700 M⁻¹ s⁻¹ | 0.13 nM | 1.18e-05 s⁻¹ | 90700 M⁻¹ s⁻¹ | 149 nM | 0.004 s⁻¹ | 26700 M⁻¹ s⁻¹ |  | Biotinylated 1D DARPin MAM093 (SEQ ID NO: 1) with a Glycine-Serine (GS) at the N-terminal end (designed binder, biotinylated (site and any tag used not stated), also called Biotinylated DARPin MAM093) GSDLGKKLLAAAAQGQDDEVRELLKAGANVNAKDLFGYTPLHLAAWRGHLEIVEVLLKAGADVNAKDAAGETPLHLAAWFGHLEIVEVLLKAGADVNAQDLQGKTPADLAAKEGHEDIAEVLQKAA

— US20250332297A1, “DLL3-SPECIFIC BINDING CONSTRUCTS AND THEIR USE IN RADIOTHERAPY” (MOLECULAR PARTNERS AG, priority 2024, published 2025)
